The values that follow come from patent US7708999B2, “Remedies for arthritis” (Kyowa Hakko Kirin Co., Ltd., priority 2001, dated 2010).

Experiment [1] deals with rabbit articular chondrocytes. Description: Degradation of extracellular matrix of rabbit chondrocytes with FGF-8. The experiment is classed as cell-based. The following applies: 48 hours, FGF-8 1, 10 or 100 ng/mL tested. As to the method: Rabbit articular chondrocytes were isolated from both knees and shoulders of 3-week-old New Zealand white female rabbits and cultured according to the method of Tamura et al. (Tamura T. et al., Eur. J. Pharmacol., 419, 269-274, 2001). That is, the joints of both knees and the joints of both shoulders were isolated to collect the epiphyseal cartilages. […] The culture solution was removed, and the amount of glycosaminoglycan in extracellular matrix remaining on the plate was measured by the dimethymethylene blue (DMMB) method (Chandrasekhar S. et al., Anal. Biochem. 161 103-108, 1987). […] To 75 μL of this digested solution were added 25 μL of a guanidine hydrochloride buffer (2.88 mol/L guanidine hydrochloride, 50 mmol/L sodium acetate, pH 6.8) and 200 μL of a DMMB solution, and the absorbance was measured at 530/590 nm. The concentration of glycosaminoglycan of each sample was calculated from the absorbance of chondroitin sulfate (derived from whale cartilages, manufactured by Seikagaku Kogyo) used as a standard. Three experiments were performed for each condition and the mean values and the standard error were calculated.

Experiment [2] has as its system rabbit articular chondrocytes. Description: Promotion of production of matrix metalloproteinase-3 from rabbit chondrocytes with FGF-8. The experiment is classed as cell-based. The following applies: 48 hours. The method, then:
Rabbit articular chondrocytes were isolated and cultured by the method described in Example 1. After the chondrocytes became confluent, the culture solution was replaced with 0.5 vol % FBS/DMEM, followed by the culturing for 24 hours. The culture solution was removed, and 1 mL of 0.5 vol % FBS/DMEM (non-stimulated group), 0.5 vol % FBS/DMEM comprising FGF-8 (100 ng/mL)(0 group) or 0.5 vol % FBS/DMEM comprising FGF-8 (100 ng/mL) and anti-FGF-8 neutralizing antibody KM1334 (1, 3 or 10 μg/mL) was added, followed by the culturing for 48 hours. After 48 hours, the culture medium was recovered, the matrix metalloproteinase-3 concentration in the culture medium was measured using rabbit matrix metalloproteinase-3 ELISA system (manufactured by Amersham Biosciences). Three experiments were performed for each condition, and the mean values and the standard error were calculated.

The next experiment has as its system rabbit synovial cells. Description: Promotion of growth of rabbit synovial cells with FGF-8 ([3H]thymidine incorporation). The format is cell-based. The following applies: FGF-8 1, 10 or 100 ng/mL tested. As to the method:
(§1) Rabbit synovial cells were collected by the method of Hamilton et al. (Hamilton J. A. and Slywka J., J. Immunol. 126, 851-855, 1981). The isolated synovial cells were suspended in RPMI 1640 medium comprising 10 vol % FBS (FBS-comprising RPMI 1640 medium is hereinafter referred to as FBS/RPMI 1640), and 10,000 cells was inoculated at each well of a 96-well culture plate. After 24 hours of the culturing, the culture medium of each well was removed, and 200 μL of 0.2 vol % FBS/RPMI 1640 (non-stimulated group) or 0.2 vol % FBS/RPMI 1640 comprising FGF-8 (1, 10 or 100 ng/mL) was added. When the activity of the anti-FGF-8 neutralizing antibody was examined, 200 μL of 0.2 vol % FBS/RPMI 1640 comprising FGF-8 (100 ng/mL) (0 group) or 0.2 vol % FBS/RPMI 1640 comprising FGF-8 (100 ng/mL) and anti-FGF-8 neutralizing antibody KM1334 (0.1, 0.3, 1, 3 or 10 μg/ml) was added to each well. After 48 hours of the culturing, 9.25 kBq per well of [^3H]thymidine was added. The culturing was further performed for 24 hours, and the radioactivity of [^3H]thymidine incorporated in the cells was measured using a liquid scintillation counter (1205 Beta Plate, manufactured by Perkin Elmer Life Science Japan). Six experiments were performed for each condition, and the mean values and the standard error were calculated.
(Uptake of a labelled nucleoside into DNA is a usual measure of proliferation.)

The test system of experiment [3] is human synovial cells derived from the rheumatoid arthritis patient. Nature of the experiment: Promotion of growth of human synovial cells with FGF-8 ([3H]thymidine incorporation). The following applies: FGF-8 10, 100 or 500 ng/mL tested. The experiment is classed as cell-based. As to the method:
as §1, with “When the activity of the anti-FGF-8 neutralizing antibody was examined, 200 μL of 0.2 vol % FBS/RPMI 1640 comprising FGF-8 (100 ng/mL) (0 group) or 0.2 vol % FBS/RPMI 1640 comprising FGF-8 (100 ng/mL) and anti-FGF-8 neutralizing antibody KM1334 (0.1, 0.3, 1, 3 or 10 μg/ml) was added to each well. After 48 hours of the culturing, 9.25 kBq per well of [^3H]thymidine was added.” left out
The same experiment as in Example 3 was performed using human synovial cells derived from the rheumatoid arthritis patient (procured from Toyobo). […] Six experiments were performed for each condition, and the mean values and the standard error were calculated.

Experiment [4] concerns knee joint of Sprague-Dawley rats. Description: Induction of arthritis by intraarticular injection of FGF-8. The experiment is classed as in vivo, rat. The following applies: 50 μL of 1 mg/mL FGF-8 into knee joint of rats, after 3 days. As to the method:
Arthritis-like phenotypes were induced in Sprague-Dawley rats (male, 7 weeks old, Japan Charles River) using FGF-8 in the following manner. Fifty μL of FGF-8 solution prepared with saline(manufactured by Otsuka Seiyaku Kojo) to a final concentration of 1 mg/mL was injected into the each knee joint of rats. Further, a group that injected 50 μL of saline into the knee joint was also prepared. One group consisted of 3 rats. After 3 days from the injection of FGF-8 or saline, the inside of the knee articular capsule was washed with 30 μL of saline comprising 0.38 w/v % sodium citrate to collect the lavage fluid, according to the method of Yamada et al (Yamada A. et al., Inflamm. Res., 49, 144-146, 2000). This procedure was repeated ten times to recover 300 μL of the joint lavage fluid. The amount of glycosaminoglycan in the joint lavage fluid was measured by the DMMB method described in Example 1. The patella of the knee joint was isolated, and the cartilaginous portion was digested with papain by the method described in Example 1 to measure the […].

B1: FGF-8: fibroblast growth factor FGF-8, androgen-induced growth factor; manufactured by Peprotech (protein, UniProt P55075 23-233, looked up)
Fibroblast growth factor 8: QEGPGRGPALGRELASLFRAGREPQGVSQQHVREQSLVTDQLSRRLIRTYQLYSRTSGKHVQVLANKRINAMAEDGDPFAKLIVETDTFGSRVRVRGAETGLYICMNKKGKLIAKSNGKGKDCVFTEIVLENNYTALQNAKYEGWYMAFTRKGRPRKGSKTRQHQREVHFMKRLPRGHHTTEQSLRFEFLNYPPFTRSLRGSQRTWAPEPR
Regarding B1, in experiment [1], the “concentration at which FGF-8 significantly decreased the residual amount of glycosaminoglycan in extracellular matrix” value was found to be 100 ng/mL. Besides, the “concentration at which FGF-8 significantly increased the production of matrix metalloproteinase-3 from the chondrocytes” value in experiment [2] is 100 ng/mL. The “concentration at which FGF-8 significantly promoted the incorporation of [3H]thymidine into the rabbit synovial cells” value in the experiment with rabbit synovial cells is 100 ng/mL. Besides, the “concentration at which FGF-8 significantly promoted the incorporation of [3H]thymidine into the human synovial cells” value in experiment [3] turned out to be 500 ng/mL. Further, in experiment [4], the “concentration of glycosaminoglycan in the joint lavage fluid relative to the saline injected group” value was 1.9 times and the “weight of the patella after papain digestion relative to the saline injected group” value is reported as 40%.
